Reference: patent US20100112057A1 (published 2010)

Legend:
[1] = molecular target: T1, streptavidin (streptavidin-coated SA chip) (UniProt P22629 37-163, limits assumed); assay: SPR, Biacore 3000, streptavidin-coated (SA) chip
T1 construct: Surface protein of the commercial SPR chip

[2] = molecular target: the molecule itself; assay: circular dichroism in PBS; concentration dependence of MRE at 222 nm fitted for the Kd of coiled-coil dimerization (unfolding/dissociation of the dimer)

T1 sequence (P22629 37-163 limits assumed): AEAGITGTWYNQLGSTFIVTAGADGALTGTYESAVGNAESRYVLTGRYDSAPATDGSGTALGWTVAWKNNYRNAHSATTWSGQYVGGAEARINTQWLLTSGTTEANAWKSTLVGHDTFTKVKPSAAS

B1: PF4ZIP (peptide)
peptide: CGGRMKQLEDKVKKLLKKNYHLENEVARLKKLVG
notes: Free peptide made by Fmoc solid phase synthesis on Rink Amide MBHA resin; The measurement is the self-association of two such chains into a coiled-coil dimer; also called PF4ZIP peptide
- binding result [1]: no binding
- Kd [2]: 3.48 µM
